Measured values: PMC3135172 (Cell, 2011)
Where no end group is shown, it is not given here.

Molecular target: BPTF bromodomain (human)
Test: ITC

GKGLGK(Ac)GGAKR (not fully specified) [H4K12ac peptide]
Kd: 69 ± 1 µM
